± gives the uncertainty stated by the source.

This data set can be described thus: protein stability index of a GFP-peptide fusion (yeast GPS) (PSI 1-4); higher = more stable; sorted into four equal gates, so the index is relative within each strain. The method, boiled down: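 Tiled 17-residue yeast protein peptides were fused downstream of GFP in a plasmid that also expresses Cherry, and the pooled library was carried in yeast. Mid-log cultures in leucine-free medium were sorted into four equal gates by GFP/Cherry fluorescence ratio, and plasmids from each gate were PCR-amplified and Illumina-sequenced, with reads assigned to strains by barcodes. The protein stability index for each peptide was each gate's read frequency times its gate number, summed.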

Consider VLIANDVDPIELVVFLP [RPL8A], for which the protein stability index reads like this: (doa10∆) 2.42 ± 0.24; (pdr5∆) 2.85 ± 0.077; (san1∆) 3.13 ± 0.087; (ubr1∆) 3 ± 0.058.
As to HSKFRSSSGNTWSLILN [YML031W/NDC1], the protein stability index reads like this: (doa10∆) 2.75 ± 0.1; (pdr5∆) 2.72 ± 0.099; (san1∆) 3.15 ± 0.078; (ubr1∆) 3.12 ± 0.077.
For the sequence ALRALARSGLRIGRIED [RPS14A], the protein stability index is 2.12 ± 0.096 (pdr5∆), 2.33 ± 0.1 (san1∆) and 2.01 ± 0.071 (ubr1∆).
Turning to FLQPLLLVGLIKTFYWL [NUT1], the protein stability index runs as follows: (doa10∆) 1.8 ± 0.051; (pdr5∆) 2.3 ± 0.062; (san1∆) 1.5 ± 0.089; (ubr1∆) 1.8 ± 0.051.
For TQMDGFDQSTNVKVIMA [RPT3], the protein stability index (doa10∆) is 2.28 ± 0.062, the protein stability index (pdr5∆) was 2.35 ± 0.06, the protein stability index (san1∆) was 1.54 ± 0.077 and the protein stability index (ubr1∆) is 2.31 ± 0.061.
For THTNLERDEQKRAEKKA [SNF2] the same measures were 3.35 ± 0.099, 3.45 ± 0.11, 2.77 ± 0.12 and 3.23 ± 0.059.
For TASVEKAEFSKEMTLQK [YIL149C/MLP2] the same measures were 3.25 ± 0.15, 3.44 ± 0.14, 3.3 ± 0.14 and 3.22 ± 0.13.
As to AHRGIRHFWGLRVRGQH [RPS18A], the protein stability index runs as follows: (doa10∆) 2.82 ± 0.1; (pdr5∆) 2.73 ± 0.083; (san1∆) 2.44 ± 0.081; (ubr1∆) 2.66 ± 0.053.
For QLAVKIINKVLDYQETY [YJL039C/NUP192], the protein stability index is, setting by setting: (doa10∆) 1.94 ± 0.11; (pdr5∆) 2.73 ± 0.096; (san1∆) 2.51 ± 0.086.
Take ILSGFHNAGPVAGAGAA [RPP1B]: the protein stability index reads like this: (doa10∆) 3.01 ± 0.072; (pdr5∆) 2.97 ± 0.061; (san1∆) 2.74 ± 0.07; (ubr1∆) 2.65 ± 0.099.
For LTYAQQQLNKQRQDFER [SNF6], the protein stability index by setting is: (doa10∆) 2.49 ± 0.073; (pdr5∆) 2.44 ± 0.071; (san1∆) 2.17 ± 0.083; (ubr1∆) 2.6 ± 0.038.
With GLIYSFNEENGEDSTKP [POP1], the protein stability index is, setting by setting: (doa10∆) 3.25 ± 0.098; (pdr5∆) 3.21 ± 0.18; (san1∆) 2.86 ± 0.26; (ubr1∆) 3.1 ± 0.17.
As to LGKKKNVKEEETVAKSK [RPS8A], the protein stability index (doa10∆) came out at 3.22 ± 0.052, the protein stability index (pdr5∆) is 3.31 ± 0.05, the protein stability index (san1∆) was 3.335 ± 0.031 and the protein stability index (ubr1∆) is 3.25 ± 0.039.
Sequence RKQRVKKKTKKELELER [SWI1] returned a protein stability index (doa10∆) of 2.69 ± 0.13, a protein stability index (pdr5∆) of 2.96 ± 0.13, a protein stability index (san1∆) of 3.56 ± 0.12 and a protein stability index (ubr1∆) of 2.2 ± 0.13.
Take TATNSKGEQIAIFPYQD [ECM29]: the protein stability index by setting is: (doa10∆) 2.44 ± 0.085; (pdr5∆) 2.98 ± 0.12; (san1∆) 3.29 ± 0.12; (ubr1∆) 3.15 ± 0.15.
As for GGTSDMNYLLDNKINEI [CSI1], the protein stability index runs as follows: (doa10∆) 2.85 ± 0.11; (pdr5∆) 2.87 ± 0.087; (san1∆) 3.17 ± 0.059; (ubr1∆) 3.25 ± 0.078.
For IKLDIVVGQNQLIDQFE [SNF5], the protein stability index reads like this: (doa10∆) 1.88 ± 0.075; (pdr5∆) 2.07 ± 0.098; (san1∆) 2.11 ± 0.092; (ubr1∆) 2.25 ± 0.085.
In the case of NAARKAEASGEAAEEAE [RPS9B], the protein stability index reads like this: (doa10∆) 3.81 ± 0.29; (pdr5∆) 3.39 ± 0.24; (ubr1∆) 2.89 ± 0.28.
Consider EEEIKKFDSRIRGILMA [PRP8], for which the protein stability index came to 2.71 ± 0.066 (doa10∆), 2.81 ± 0.074 (pdr5∆), 2.69 ± 0.052 (san1∆) and 3.02 ± 0.051 (ubr1∆).
ELDTASRILKAQSRNVE [YGR119C/NUP57] gave a protein stability index (doa10∆) of 2.35 ± 0.055, a protein stability index (pdr5∆) of 2.34 ± 0.063, a protein stability index (san1∆) of 2.03 ± 0.077 and a protein stability index (ubr1∆) of 2.43 ± 0.056.
Take QRHIAVGKQIVNIPSFM [RPS9A]: the protein stability index is, setting by setting: (doa10∆) 2.48 ± 0.056; (pdr5∆) 2.74 ± 0.067; (san1∆) 2.89 ± 0.082; (ubr1∆) 2.8 ± 0.065.
On to DEEGIFSRFVDQFIRHV [YCG1], for which the protein stability index (doa10∆) came to 2.98 ± 0.16, the protein stability index (pdr5∆) stood at 2.79 ± 0.13, the protein stability index (san1∆) worked out at 2.99 ± 0.085 and the protein stability index (ubr1∆) was found to be 2.93 ± 0.06.
LDLLRPVVRAPTVKYNR [RPL13A] gave a protein stability index (doa10∆) of 1.64 ± 0.13, a protein stability index (pdr5∆) of 2.38 ± 0.2, a protein stability index (san1∆) of 1.7 ± 0.17 and a protein stability index (ubr1∆) of 2.08 ± 0.11.
As for EVGPWGSARTRWEMEAF [FAS2], the protein stability index came out at 1.23 ± 0.077 (doa10∆), 1.62 ± 0.25 (pdr5∆) and 1.6 ± 0.13 (ubr1∆).

The values are drawn from the supplement of paper PMC9732359.
